Measured values published in article PMC10716038, “Talin and kindlin use integrin tail allostery and direct binding to activate integrins” (Nature Structural & Molecular Biology, 2023).
Where a chain is given by its changes, count along the chain named. Numbers in names are those of the source. Values belong to the molecule of their own block, whether it stands above or below them. No end group written: not given here.

Legend:
[1] = target: integrin β1A cytoplasmic tail (β1-CT), recombinant (UniProt P05556); test: NMR titration; isotope-labelled β1-CT observed; TLN1-F3 and ΔKIND2 (wild type or K402E / Y13A) added together, ternary complex; 20 mM Tris, 200 mM NaCl, 1 mM DTT, pH 7.5, 298 K
[2] = target: ATTO 488-labelled β1-CT (488–β1-CT) (UniProt P05556); test: MST; ATTO 488-labelled β-CT peptide (50–200 nM) held constant, one unlabelled protein titrated; 20 mM Tris pH 7.5, 200 mM NaCl, 1 mM TCEP, 0.05% Tween-20; apparent affinities (near-saturation only)
[3] = target: T1, β3 transmembrane and cytoplasmic tail polypeptide (β3-TM–CT) in nanodiscs (UniProt O54890 715-787, biotin (biotin-maleimide)); test: FACS; 10% PIP2 nanodiscs
T1 chain: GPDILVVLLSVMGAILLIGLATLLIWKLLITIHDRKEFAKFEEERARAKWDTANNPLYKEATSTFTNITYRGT

[4] = target: T2, α5-TM lacking the cytoplasmic domain (tailless α5-TM) in nanodiscs (UniProt P11688 993-1025, biotin (biotin-maleimide)); test: FACS; 10% PIP2 nanodiscs
T2 chain: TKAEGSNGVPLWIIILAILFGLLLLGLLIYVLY

[5] = target: T3, β1 transmembrane and cytoplasmic tail polypeptide (β1-TM–CT) in nanodiscs (UniProt P05556 726-798, biotin (biotin-maleimide)); test: FACS; 10% PIP2 nanodiscs
T3 chain: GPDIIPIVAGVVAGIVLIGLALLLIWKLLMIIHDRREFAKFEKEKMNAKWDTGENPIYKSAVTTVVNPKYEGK

[6] = target: T1, β3 transmembrane and cytoplasmic tail …; test: FACS; 10% PIP3 nanodiscs
[7] = target: T2, α5-TM lacking the cytoplasmic domain …; test: FACS; 10% PIP3 nanodiscs
[8] = target: T3, β1 transmembrane and cytoplasmic tail …; test: FACS; 10% PIP3 nanodiscs
[9] = target: T4, ATTO 488-labelled β3-CT (488–β3-CT) (UniProt O54890 741-787, ATTO 488 at the N terminus); test: MST; as a7, with a second unlabelled protein present at near-saturating concentration (named in the quantity or in the printed words); apparent constants (Kd,app*); conditions: both partners purified
T4 construct: integrin β3 cytoplasmic tail; source: synthetic peptide (MPIB Core Facility)
T4 peptide (looked up): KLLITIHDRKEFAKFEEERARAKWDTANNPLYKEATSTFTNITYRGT

kindlin-2 (KIND2) = target: T5, kindlin-2 (KIND2) (UniProt Q8CIB5 1-680); test: MST
T5 chain: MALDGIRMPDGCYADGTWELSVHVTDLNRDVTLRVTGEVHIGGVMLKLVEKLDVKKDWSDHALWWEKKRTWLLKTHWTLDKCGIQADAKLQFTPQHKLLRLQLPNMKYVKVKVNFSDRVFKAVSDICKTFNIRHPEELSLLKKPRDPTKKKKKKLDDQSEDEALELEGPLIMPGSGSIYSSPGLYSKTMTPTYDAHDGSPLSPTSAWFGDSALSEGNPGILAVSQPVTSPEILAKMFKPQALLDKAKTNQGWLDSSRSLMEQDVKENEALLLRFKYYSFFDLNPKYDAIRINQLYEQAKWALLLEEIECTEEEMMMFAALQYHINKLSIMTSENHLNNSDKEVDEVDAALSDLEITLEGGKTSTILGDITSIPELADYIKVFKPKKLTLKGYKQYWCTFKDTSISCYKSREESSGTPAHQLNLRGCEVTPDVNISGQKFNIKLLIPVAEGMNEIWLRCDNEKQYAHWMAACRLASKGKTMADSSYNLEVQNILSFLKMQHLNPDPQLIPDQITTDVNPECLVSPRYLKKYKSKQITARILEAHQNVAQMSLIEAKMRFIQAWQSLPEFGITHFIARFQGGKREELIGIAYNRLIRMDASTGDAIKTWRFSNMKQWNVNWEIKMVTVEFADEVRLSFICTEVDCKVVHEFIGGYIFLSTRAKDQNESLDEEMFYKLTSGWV

[10] = target: T6, talin-1 head domain (THD1) (UniProt P26039 1-405); test: MST
T6 chain: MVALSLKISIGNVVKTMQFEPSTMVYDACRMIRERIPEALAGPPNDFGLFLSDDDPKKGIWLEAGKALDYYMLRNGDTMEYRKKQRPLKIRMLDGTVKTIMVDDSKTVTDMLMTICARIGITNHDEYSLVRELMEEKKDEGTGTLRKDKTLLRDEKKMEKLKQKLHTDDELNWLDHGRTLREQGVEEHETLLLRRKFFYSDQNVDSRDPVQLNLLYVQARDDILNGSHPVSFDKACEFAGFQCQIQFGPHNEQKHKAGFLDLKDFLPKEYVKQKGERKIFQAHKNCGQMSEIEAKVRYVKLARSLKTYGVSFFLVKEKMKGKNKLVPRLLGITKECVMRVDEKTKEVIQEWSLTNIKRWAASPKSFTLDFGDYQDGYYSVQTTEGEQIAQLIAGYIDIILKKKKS

decrease of the signal intensities of the membrane-proximal α-helix of β1-CT (H758–K770), 1:0.8 against 1:0.2, with TLN1-F3 K402E added together [1]: 10%
decrease of the signal intensities of the membrane-proximal α-helix of β1-CT (H758–K770), 1:0.8 against 1:0.2, with TLN1-F3 added together [1]: 30%
Molecule: ΔKIND2^Y13A (domain or fragment)

Kd of the kindlin contribution (fit of concentrations up to 5 µM) [2]: 2.9 µM
Kd of the talin contribution (fit of concentrations above 5 µM) [2]: 16 µM
Molecule: TLN1-F3–ΔKIND2^Y13A fusion protein

decrease of the signal intensities of the membrane-proximal α-helix of β1-CT (H758–K770), 1:0.8 against 1:0.2, with TLN1-F3 added together [1]: 50%
Molecule: KIND2 lacking the flexible loop in F1 and the PH domain (ΔKIND2) (domain or fragment)

IC50 [3]: 0.07 µM
IC50 [4]: 0.246 µM
IC50 [5]: 0.131 µM
IC50 [6]: 0.051 µM
IC50 [7]: 0.211 µM
IC50 [8]: 0.054 µM
B1: THD1^K402E (domain or fragment)
chain: T6 chain with K402E

apparent Kd (Kd,app*) in the presence of KIND2 [9]: 102 µM
apparent Kd (Kd,app*) in the presence of KIND2 Y13A [9]: 218 µM
B2: talin-1 head domain (THD1) (domain or fragment, UniProt P26039 1-405, looked up)
chain: T6 chain
notes: talin-1 (TLN1) head domain (F0-F3), residues 1-405; In FC-RDA a copy labelled with ATTO 565 (565–THD1) was the reporter; also called 565–THD1; source: E. coli (DE3) Rosetta 2, purified (IMAC, SEC); not shown: His10, N-terminal, cleaved; SUMO, N-terminal, cleaved

apparent Kd (Kd,app*) in the presence of KIND2 [9]: 76 µM
B3: THD1^K402E (domain or fragment, UniProt P26039 1-405, looked up)
chain: T6 chain with K402E
notes: talin-1 (TLN1) head domain, residues 1-405, with K402E; In FC-RDA a copy labelled with ATTO 565 was the reporter; also called 565–THD1^K402E; source: E. coli (DE3) Rosetta 2, purified (IMAC, SEC); not shown: His10, N-terminal, cleaved; SUMO, N-terminal, cleaved

Kd (kindlin-2 (KIND2)): 15.5 µM
Kd [10]: 511 µM
Molecule: {ATTO 488}-KLLITIHDRKEFAKFEEERARAKWDTANNPLAKEATSTFTNITYRGT [ATTO 488-labelled β3-CT^Y772A]

IC50 [3]: 0.219 µM
IC50 [4]: 0.162 µM
IC50 [5]: 0.098 µM
IC50 [6]: 0.173 µM
IC50 [7]: 0.128 µM
B4: KIND2^Y13A (natural protein)
chain: T5 chain with Y13A

apparent Kd (Kd,app*) in the presence of THD1 [9]: 54 µM
apparent Kd (Kd,app*) in the presence of THD1 K402E [9]: 16 µM
apparent Kd (Kd,app*) in the presence of THD2 [9]: 27 µM
apparent Kd (Kd,app*) in the presence of TLN1-F3 [9]: 120 µM
apparent Kd (Kd,app*) in the presence of TLN2-F3 [9]: 47 µM
B5: kindlin-2 (KIND2) (natural protein, UniProt Q8CIB5 1-680, looked up)
chain: T5 chain
notes: kindlin-2 (KIND2) without the deletions of ΔKIND2; In FC-RDA a copy labelled with Alexa 647 (647–KIND2) was the reporter; also called 647–KIND2; source: E. coli Rosetta, purified (IMAC, SEC); not shown: His10, N-terminal, cleaved; SUMO, N-terminal, cleaved

apparent Kd (Kd,app*) in the presence of THD1 [9]: 21 µM
B6: KIND2^Y13A (natural protein, UniProt Q8CIB5 1-680, looked up)
chain: T5 chain with Y13A
notes: kindlin-2 (KIND2) with Y13A; In FC-RDA a copy labelled with Alexa 647 was the reporter; also called 647–KIND2^Y13A; source: E. coli Rosetta, purified (IMAC, SEC); not shown: His10, N-terminal, cleaved; SUMO, N-terminal, cleaved
